Each block holds one substance with its values, some of them ahead of it.
Tests used:
[1] = target: TCR of murine OT1 lymphocytes (specific for OVA257-264); assay: cell-based or functional assay
[2] = target: F5 MART-1 TCR, on Jurkat^α-MART-1 cells or on transduced human PBMCs; assay: multiplexed cell sorting of a 1:1 cell mix; the number is an average over spots A and B
[3] = target: F5 MART-1 TCR, on Jurkat^α-MART-1 cells or on transduced human PBMCs; assay: immuno-PCR of the DNA tag after staining of cells, gel electrophoresis
[4] = target: TCR specific for tyrosinase368-376, on Jurkat^α-Tyr cells; assay: immuno-PCR of the DNA tag after staining of cells, gel electrophoresis (non-cognate control)
[5] = target: F5 MART-1 TCR, on Jurkat^α-MART-1 cells or on transduced human PBMCs; assay: T cell capture density against the amount of p/MHC spotted on the covalent surface, Hill fit
[6] = target: TCR specific for tyrosinase368-376, on Jurkat^α-Tyr cells; assay: multiplexed cell sorting of a 1:1 cell mix; the number is an average over spots A and B
[7] = target: TCR specific for tyrosinase368-376, on Jurkat^α-Tyr cells; assay: cell capture on a NACS array, mean of three spots of about 600 µm

IFN-y clusters (ELISPOT-type sandwich assay on the array) [1]: 3 clusters
Substance: H-2Kb-OVA257-264 ssDNA-p/MHC tetramers (SAC scaffold, encoded to strands A', B' and C') (from UniProt P01901 22-305) (peptide-MHC)

average density (T cells/spot) [2]: 661 T cells/spot
PCR cycles to detection of the DNA tag [3]: < 15 cycles
PCR cycles to detection of the DNA tag [4]: 10 cycles
Substance: MART-1 26-35/HLA-A2.1 ssDNA-p/MHC tetramer on the SAC scaffold (from UniProt P61769 21-119) (peptide-MHC)

K1/2 (p/MHC monomer at half max) [5]: 5.7 ng
Substance: fluorescent MART-1 SA-PE tetramer (MART-1 26-35 loaded onto HLA-A2.1 MHC molecules) (from UniProt P61769 21-119) (peptide-MHC)

average density (T cells/spot) [6]: 661 T cells/spot
mean binding capacity (cells per spot) (T cells per spot) [7]: 1490
Substance: tyrosinase368-376/HLA-A2.1 ssDNA-p/MHC tetramer on the SAC (streptavidin-cysteine) scaffold (from UniProt P61769 21-119) (peptide-MHC)

Reference: patent US20110166034A1
